Results: patent US12709637B2, “Regulated synthetic gene activation systems” (TRUSTEES OF BOSTON UNIVERSITY, priority 2023, dated 2026)

B1: NFZ: transcriptional activator, SEQ ID NO: 57, domains from NCOA3, FOXO3 and ZNF473; tested with TIMs on N terminus (protein, listed as Homo sapiens)
chain: EGQSDERALLDQLHTLLSNTDATGLEEIDRALGIPELVNQGQALEPKQGGGGSGHEKFPSDLDLDMFNGSLECDMESIIRSELMDADGLDFNFDSGGGGSGFVTLKDVGMDFTLGDWEQLGLEQGDTFWDTALDNCQDLFLLDPP
B2: 3Z: transcriptional activator, SEQ ID NO: 303; tested with TIMs on N terminus (protein)
chain: MAEEFVTLKDVGMDFTLGDWEQLGLEQGDTFWDTALDNCQDLFLLDPPRPNLTSHPDGSEDLEPLAGGSPEATSMAEEFVTLKDVGMDFTLGDWEQLGLEQGDTFWDTALDNCQDLFLLDPPRPNLTSHPDGSEDLEPLAGGSPEATSMAEEFVTLKDVGMDFTLGDWEQLGLEQGDTFWDTALDNCQDLFLLDPPRPNLTSHPDGSEDLEPLAGGSPEATS

Columns and labels:
[1] = system: mCherry reporter in Primary T cells; test: GZV inducible systems driving mCherry reporter in Primary T cells; assay type: cell-based
Method: Primary T cells were co-transduced with synZiFTR 2.0 and a minimally expressed mCherry reporter. Upon addition of GZV, the synZiFTR construct activated mCherry expression, which was measured on a flow cytometer (see e.g., FIG. 10).

[2] = system: mCherry reporter in Primary T cells; test: 4OHT inducible systems driving mCherry reporter in Primary T cells; assay type: cell-based
Description: Primary T cells were co-transduced with synZiFTR 2.0 and a minimally expressed mCherry reporter.

Molecule | activation potency of the transcriptional activator on fusing TIMs domains on the N terminus [1] | activation potency of the transcriptional activator on fusing TIMs domains on the N terminus [2]
B1 | enhanced activation potency | enhanced activation potency
B2 | – | enhanced activation potency
